# System: Escherichia coli TOP10
# Assay: shrunken log2 fold change of peptide-encoding DNA abundance (4.5 h post-induction vs induction); higher = less antimicrobial activity (less host growth inhibition)
# Settings: time post-induction: 4.5 h; library: site-saturation at positions 5, 18, 19, 20
# 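Also: peptides expressed intracellularly from a pBAD plasmid library in pooled LB shake-flask culture, induced with 0.3% L-arabinose, DNA abundance read by NGS, three biological replicates, DESeq2 with apeglm shrinkage.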
row,Sequence,shrunken log2 fold change
1,RRIRTRPPRLPRPRPRPAWCPRP,0.0035
2,RRIRIRPPRLPRPRPRPTGFPRP,-0.0748
3,RRIRFRPPRLPRPRPRPWQRPRP,-0.0586
4,RRIRWRPPRLPRPRPRPHQLPRP,0.117
5,RRIRARPPRLPRPRPRPQTQPRP,0.628
6,RRIRTRPPRLPRPRPRPLLFPRP,-0.181
7,RRIRGRPPRLPRPRPRPVWPPRP,0.947
8,RRIRFRPPRLPRPRPRPGHIPRP,-0.00306
9,RRIRGRPPRLPRPRPRPLTIPRP,-0.155
10,RRIRRRPPRLPRPRPRPHINPRP,-0.432
11,RRIRCRPPRLPRPRPRPYYIPRP,-0.564
12,RRIRCRPPRLPRPRPRPWTPPRP,-0.131
13,RRIRERPPRLPRPRPRPPDLPRP,0.16
14,RRIRKRPPRLPRPRPRPTNAPRP,0.733
15,RRIRNRPPRLPRPRPRPINNPRP,-0.652
16,RRIRWRPPRLPRPRPRPRNSPRP,0.0821
17,RRIRERPPRLPRPRPRPHTLPRP,-0.571
18,RRIRIRPPRLPRPRPRPGLAPRP,0.201
19,RRIRGRPPRLPRPRPRPQVWPRP,0.846
20,RRIRWRPPRLPRPRPRPMWNPRP,-0.0699
21,RRIRLRPPRLPRPRPRPITYPRP,-0.266
22,RRIRHRPPRLPRPRPRPQVHPRP,-0.213
23,RRIRKRPPRLPRPRPRPLIVPRP,-0.223
24,RRIRHRPPRLPRPRPRPILRPRP,-0.178
25,RRIRARPPRLPRPRPRPKCWPRP,0.622

row,Sequence,shrunken log2 fold change
1,RRIRYRPPRLPRPRPRPIKIPRP,-0.105
2,RRIRIRPPRLPRPRPRPISRPRP,-0.0044
3,RRIRWRPPRLPRPRPRPNDCPRP,-0.0115
4,RRIRPRPPRLPRPRPRPRDSPRP,0.334
5,RRIRFRPPRLPRPRPRPQVRPRP,0.305
6,RRIRARPPRLPRPRPRPAQQPRP,0.156
7,RRIRCRPPRLPRPRPRPKWNPRP,-0.373
8,RRIRCRPPRLPRPRPRPEIMPRP,-0.0581
9,RRIRTRPPRLPRPRPRPTPFPRP,0.356
10,RRIRKRPPRLPRPRPRPGPGPRP,0.493
11,RRIRPRPPRLPRPRPRPLGLPRP,-0.124
12,RRIRTRPPRLPRPRPRPLYGPRP,0.0411
13,RRIRTRPPRLPRPRPRPNDNPRP,-0.739
14,RRIRYRPPRLPRPRPRPNMDPRP,-1.3
15,RRIRHRPPRLPRPRPRPLVNPRP,-0.117
16,RRIRVRPPRLPRPRPRPMPSPRP,0.333
17,RRIRKRPPRLPRPRPRPTVFPRP,0.0385
18,RRIRKRPPRLPRPRPRPCTYPRP,0.0972
19,RRIRMRPPRLPRPRPRPCHLPRP,-0.0745
20,RRIRGRPPRLPRPRPRPWICPRP,-0.00439
21,RRIRCRPPRLPRPRPRPPPAPRP,1.46
22,RRIRFRPPRLPRPRPRPGQGPRP,0.249
23,RRIRYRPPRLPRPRPRPNKIPRP,-0.995
24,RRIRMRPPRLPRPRPRPVECPRP,-0.117
25,RRIRMRPPRLPRPRPRPVGDPRP,0.173

row,Sequence,shrunken log2 fold change
1,RRIRWRPPRLPRPRPRPDDPPRP,-0.0101
2,RRIRNRPPRLPRPRPRPEWRPRP,0.404
3,RRIRQRPPRLPRPRPRPTMAPRP,0.216
4,RRIRSRPPRLPRPRPRPHIQPRP,-0.699
5,RRIRYRPPRLPRPRPRPYMNPRP,0.0271
6,RRIRDRPPRLPRPRPRPVPMPRP,0.115
7,RRIRERPPRLPRPRPRPHMPPRP,-0.197
8,RRIRTRPPRLPRPRPRPGTDPRP,-0.253
9,RRIRMRPPRLPRPRPRPWKNPRP,0.0328
10,RRIRHRPPRLPRPRPRPSTCPRP,-0.0299
11,RRIRQRPPRLPRPRPRPVEQPRP,0.0359
12,RRIRKRPPRLPRPRPRPYWIPRP,-0.0363
13,RRIRLRPPRLPRPRPRPAHVPRP,0.241
14,RRIRTRPPRLPRPRPRPKWHPRP,-0.0752
15,RRIRNRPPRLPRPRPRPTADPRP,0.422
16,RRIRCRPPRLPRPRPRPMMHPRP,-0.175
17,RRIRRRPPRLPRPRPRPEYIPRP,-0.199
18,RRIRYRPPRLPRPRPRPSFCPRP,-0.793
19,RRIRIRPPRLPRPRPRPALWPRP,0.199
20,RRIRDRPPRLPRPRPRPGHAPRP,0.648
21,RRIRMRPPRLPRPRPRPSERPRP,0.365
22,RRIRPRPPRLPRPRPRPAITPRP,-0.361
23,RRIRNRPPRLPRPRPRPTGEPRP,0.394
24,RRIRYRPPRLPRPRPRPNPLPRP,-0.766
25,RRIRGRPPRLPRPRPRPLWMPRP,0.343

row,Sequence,shrunken log2 fold change
1,RRIRLRPPRLPRPRPRPTIQPRP,-0.0934
2,RRIRLRPPRLPRPRPRPDQAPRP,-0.00133
3,RRIRHRPPRLPRPRPRPEVEPRP,-0.00133
4,RRIRERPPRLPRPRPRPYAAPRP,-0.368
5,RRIRCRPPRLPRPRPRPDMDPRP,-0.00476
6,RRIRCRPPRLPRPRPRPARQPRP,0.0993
7,RRIRARPPRLPRPRPRPEFIPRP,-0.189
8,RRIRKRPPRLPRPRPRPGLCPRP,0.168
9,RRIRNRPPRLPRPRPRPHCGPRP,-0.225
10,RRIRTRPPRLPRPRPRPINLPRP,-0.156
11,RRIRRRPPRLPRPRPRPIYYPRP,-0.192
12,RRIRQRPPRLPRPRPRPIIWPRP,0.0173
13,RRIRKRPPRLPRPRPRPHPWPRP,0.353
14,RRIRIRPPRLPRPRPRPTTVPRP,-0.319
15,RRIRSRPPRLPRPRPRPWDAPRP,0.069
16,RRIRPRPPRLPRPRPRPFSVPRP,-0.0603
17,RRIRCRPPRLPRPRPRPHRSPRP,-0.114
18,RRIRFRPPRLPRPRPRPHGWPRP,0.309
19,RRIRNRPPRLPRPRPRPPWCPRP,0.108
20,RRIRHRPPRLPRPRPRPDCIPRP,-0.0444
21,RRIRVRPPRLPRPRPRPTCRPRP,0.147
22,RRIRNRPPRLPRPRPRPYYWPRP,-0.367
23,RRIRERPPRLPRPRPRPMPNPRP,-0.172
24,RRIRCRPPRLPRPRPRPQQFPRP,-0.217
25,RRIRFRPPRLPRPRPRPLIWPRP,-0.13

row,Sequence,shrunken log2 fold change
1,RRIRVRPPRLPRPRPRPRVDPRP,0.455
2,RRIRLRPPRLPRPRPRPSCGPRP,-0.583
3,RRIRPRPPRLPRPRPRPQPLPRP,0.16
4,RRIRCRPPRLPRPRPRPKDEPRP,0.393
5,RRIRYRPPRLPRPRPRPQMHPRP,-0.748
6,RRIRARPPRLPRPRPRPASVPRP,0.261
7,RRIRARPPRLPRPRPRPQMSPRP,0.0835
8,RRIRDRPPRLPRPRPRPQQIPRP,-0.148
9,RRIRGRPPRLPRPRPRPPEYPRP,0.448
10,RRIRFRPPRLPRPRPRPLYGPRP,-0.303
11,RRIRRRPPRLPRPRPRPHMIPRP,-0.13
12,RRIRQRPPRLPRPRPRPAIFPRP,-0.0662
13,RRIRGRPPRLPRPRPRPGCTPRP,0.885
14,RRIRPRPPRLPRPRPRPKQFPRP,-0.313
15,RRIRMRPPRLPRPRPRPPLSPRP,0.185
16,RRIRIRPPRLPRPRPRPIWIPRP,-0.269
17,RRIRPRPPRLPRPRPRPHIFPRP,-0.0487
18,RRIRMRPPRLPRPRPRPLDNPRP,0.957
19,RRIRWRPPRLPRPRPRPVWYPRP,-0.18
20,RRIRVRPPRLPRPRPRPNDIPRP,-0.235
21,RRIRLRPPRLPRPRPRPKLTPRP,0.106
22,RRIRGRPPRLPRPRPRPLNWPRP,0.0909
23,RRIRFRPPRLPRPRPRPPHRPRP,0.324
24,RRIRDRPPRLPRPRPRPCIPPRP,-0.123
25,RRIRERPPRLPRPRPRPGAAPRP,1.82

row,Sequence,shrunken log2 fold change
1,RRIRHRPPRLPRPRPRPLECPRP,-0.257
2,RRIRARPPRLPRPRPRPLWMPRP,0.264
3,RRIRWRPPRLPRPRPRPYSKPRP,-0.492
4,RRIRARPPRLPRPRPRPEGGPRP,0.872
5,RRIRCRPPRLPRPRPRPMLDPRP,0.0729
6,RRIRWRPPRLPRPRPRPPYDPRP,-0.0917
7,RRIRYRPPRLPRPRPRPYLTPRP,-0.305
8,RRIRSRPPRLPRPRPRPQTIPRP,-0.502
9,RRIRWRPPRLPRPRPRPYMRPRP,0.0516
10,RRIRWRPPRLPRPRPRPKSAPRP,0.606
11,RRIRKRPPRLPRPRPRPRILPRP,0.0416
12,RRIRFRPPRLPRPRPRPSPPPRP,0.218
13,RRIRSRPPRLPRPRPRPYASPRP,0.0607
14,RRIRLRPPRLPRPRPRPPYLPRP,-0.0206
15,RRIRLRPPRLPRPRPRPRYWPRP,-0.0087
16,RRIRVRPPRLPRPRPRPHIAPRP,-0.235
17,RRIRERPPRLPRPRPRPKDIPRP,0.0209
18,RRIRYRPPRLPRPRPRPLWWPRP,-0.696
19,RRIRERPPRLPRPRPRPLGWPRP,0.335
20,RRIRDRPPRLPRPRPRPMAVPRP,0.417
21,RRIRWRPPRLPRPRPRPHTYPRP,-0.578
22,RRIRGRPPRLPRPRPRPEEHPRP,0.131
23,RRIRNRPPRLPRPRPRPHDIPRP,-0.0337
24,RRIRPRPPRLPRPRPRPDLIPRP,-0.036
25,RRIRTRPPRLPRPRPRPNPHPRP,-0.177
